This is an account of results in patent publication US6713273B2, “High expression and production of high specific activity recombinant S-adenosyl homocysteinase (SAHH) and improved assays for S-adenosylmethionine (SAM)” (priority 2000, dated 2004).

Series [1] in a line: SAHH activity measurement (SAH hydrolysis coupled to rHCYase, DBPDA readout). Format: biochemical. The procedure: Assay buffer: 20 mM potassium phosphate, pH 8.0, 1 mM DTT, and 1 mM EDTA.
2 mM S-adenosyl-L-homocysteine (SAH)
L-homocysteine (various concentrations)
40 mM DBPDA, dissolved in 6 M HCl
40 mM potassium ferricyanide
Mix well and incubate at 37° C. for 10 min. and read absorbance at 675 nm or fluorescence at EX665 nm/EM690 nm. 1 unit is defined as 1 μmole of S-adenosylhomocysteine hydrolated in 1 min. at 37° C. in the presence of excess rHCYase.

Series [2] in a line: Stability study of SAHH / His•SAHH. The class given is physicochemical. As to conditions: 45° for three days; FIGS. 2 and 5. The source says:
FIG. 2 contains the results of a stability study of SAHH.
FIG. 5 contains the results of a stability study of His•SAHH.
The SAHH enzyme of the invention has favorable properties. For instance, the SAHH has a high specific activity of at least […]. Further, the cloned SAHH of the invention provides a high expression of 20% of total cell protein. Moreover, SAHH produced according to the method of the invention has high stability as illustrated in the attached FIGS. 2 and 5.
The enzyme was formulated as follows: 20 mM potassium phosphate buffer, pH 7.6, 100 mM sodium chloride, 30% glycerol, 1 mM DTT, 1 mM NAD, and 1 mM EDTA.

B1: SAHH: Recombinant T. vaginalis S-adenosyl homocysteinase encoded by SEQ ID NO:1 (amino acid SEQ ID NO:7), expressed in E. coli (protein, listed as Homo sapiens)
chain: MACKSPTGAPFEYRIADINLHVLGRKELTLAEKEMPGLMVLRERYSASKPLKGVRISGSLHMTVQTAVLIETLTALGADVRWASCNIFSTQDTAAAAIVVGPTGTPEKPAGIPVFAWKGETLPEYWENTYRALTWPDGQGPQQVVDDGGDATLLISKGFEFETAGAVPEPTEADNLEYRCVLATLKQVFNQDKNHWHTVAAGMNGVSEETTTGVHRLYQLEKEGKLLFPAINVNDAVTKSKFDNIYGCRHSLIDGINRASDVMIGGKTALVMGYGDVGKGCAQSLRGQGARVIITELDPICALQAAMEGYQVRRIEEVVKDVDIFVTCTGNCDIISVDMMAQMKDKAIVGNIGHFDNEIDTDGLMKYPGIKHIPIKPEYDMWEFPDGHAILLLAEGRLLNLGCATGHPSFVMSMSFTNQTLAQLDLYEKRGNLEKKVYTLPKHLDEEVARLHLGSLDVHLTKLTQKQADYINVPVEGPYKSDAYRY
As to B1, the specific activity result in series [1] (general statement on the SAHH of the invention) is “at least 1.5 U/ml”; in series [1] (purified enzyme, 1 unit = 1 μmole SAH hydrolated in 1 min at 37° C. with excess rHCYase) it was 1.64 units/mg protein. Further, the “stability (activity loss)” value in series [2] was “without activity loss”.
